# Read-outs that look alike come from different tables or passages of the source.
# B1: 36F2 IgG (antibody, V domains shown)
# VH: QVQLVQSGAEVKKPGASVKVSCKASGYTFTSYYMHWVRQAPGQGLEWMGIINPSGGSTSYAQKFQGRVTMTHDTSTSTVYMELSSLRSEDTAVYYCARSFFTGFHLDYWGQGTLVTVSS
# VL: EIVLTQSPGTLSLSPGERATLSCRASQSVSSSYLAWYQQKPGQAPRLLIYGASSRATGIPDRFSGSGSGTDFTLTISRLEPEDFAVYYCQQYTNEHYYTFGQGTKVEIK
# Columns and labels:
# [1] = biological target: T1, recombinant biotinylated monomeric Fc fusion of human Folate Receptor 1 (huFolR1 ECD-AcTev-Fcknob-Avi tag … (human, UniProt P0DOX5 223-449 = IgG part, biotin on the C-terminal Avi tag)); assay: SPR Biacore, avidity (bivalent, apparent KD), antigen-Fc on SA chip
# T1 construct: also called huFolR1-Fc; human FolR1-Fc
# Description: (§1) Binding of FolR1 binders as IgG or in the T-cell bispecific format to different recombinant folate receptors (human FolR1, 2 and 3, murine FolR1 and cynomolgus FolR1; all as Fc fusions) was assessed by surface plasmon resonance (SPR). All SPR experiments were performed on a Biacore T200 at 25° C. with HBS-EP as running buffer (0.01 M HEPES pH 7.4, 0.15 M NaCl, 3 mM EDTA, 0.005% Surfactant P20, Biacore, Freiburg/Germany).
# (§2) Recombinant biotinylated monomeric Fc fusions of human, cynomolgus and murine Folate Receptor 1 (FolR1-Fc) were directly coupled on a SA chip using the standard coupling instruction (Biacore, Freiburg/Germany). The immobilization level was about 300-400 RU. The anti-FolR1 IgGs or T cell bispecifics were passed at a concentration range from 2.1 to 500 nM with a flow of 30 μL/minutes through the flow cells over 180 seconds. The dissociation was monitored for 600 seconds. Bulk refractive index differences were corrected for by subtracting the response obtained on reference flow cell immobilized with recombinant biotinylated IL2 receptor Fc fusion. […] The binding curves resulting from the bivalent binding of the IgGs or T cell bispecifics were approximated to a 1:1 Langmuir binding and fitted with that model (which is not correct, but gives an idea of the avidity). The apparent avidity constants for the interactions were derived from the rate constants of the fitting using the Bia Evaluation software (GE Healthcare).
# [2] = biological target: T2, recombinant biotinylated monomeric Fc fusion of cynomolgus Folate Receptor 1 (cy FolR1 ECD-AcTev-Fcknob-Avi … (cynomolgus, UniProt P0DOX5 223-449 = IgG part, biotin on the C-terminal Avi tag)); assay: as above
# T2 construct: also called cyFolR1-Fc; cyno FolR1
# Description: as §1, §2
# [3] = biological target: T3, recombinant biotinylated monomeric Fc fusion of murine Folate Receptor 1 (mu FolR1 ECD-AcTev-Fcknob-Avitag … (murine, UniProt P0DOX5 223-449 = IgG part, biotin on the C-terminal Avi tag)); assay: as above
# T3 construct: also called muFolR1-Fc; murine FolR1
# Description: as §1, §2
# [4] = biological target: T1, recombinant biotinylated monomeric Fc …; assay: as above; remark: listed apart in the source
# Description: (§3) The avidity of the interaction between the anti-FolR1 IgG or T cell bispecifics and the recombinant folate receptors was determined as described below (Table 25).
# (§4) Recombinant biotinylated monomeric Fc fusions of human, cynomolgus and murine Folate Receptor 1 (FolR1-Fc) were directly coupled on a SA chip using the standard coupling instruction (Biacore, GE Healthcare). The immobilization level was about 300-400 RU. The anti-FolR1 IgGs or T cell bispecifics were passed at a concentration range from 3.7 to 900 nM with a flow of 30 μL/minutes through the flow cells over 180 seconds. The dissociation was monitored for 240 or 600 seconds. The chip surface was regenerated after every cycle using a double injection of 30 sec 10 mM Glycine-HCl pH 2. Bulk refractive index differences were corrected for by subtracting the response obtained on reference flow cell immobilized with recombinant biotinylated murine CD134 Fc fusion. The binding curves resulting from the bivalent binding of the IgG or T cell bispecifics were approximated to a 1:1 Langmuir binding (even though it is a 1:2 binding) and fitted with that model to get an apparent KD representing the avidity of the bivalent binding. The apparent avidity constants for the interactions were derived from the rate constants of the fitting using the Bia Evaluation software (GE Healthcare). For the 1+1 T cell bispecifics format the interaction is a real 1:1 and the KD represents affinity since there is only one FolR1 binder in this construct.
# [5] = biological target: T2, recombinant biotinylated monomeric Fc …; assay: as above; remark: listed apart in the source
# Description: as §3, §4
# [6] = biological target: T3, recombinant biotinylated monomeric Fc …; assay: as above; remark: listed apart in the source
# Description: as §3, §4
# [7] = biological target: T4, human FolR1 expressed on cells (HeLa, SKOV3, HT-29, transfected HEK cells) (human, UniProt P15328 25-234); assay: flow cytometry on transfected HEK cells
# T4 construct: whole, on cells; also called FolR1 on HeLa cells; human FolR1 on cells
# T4 sequence (P15328 25-234): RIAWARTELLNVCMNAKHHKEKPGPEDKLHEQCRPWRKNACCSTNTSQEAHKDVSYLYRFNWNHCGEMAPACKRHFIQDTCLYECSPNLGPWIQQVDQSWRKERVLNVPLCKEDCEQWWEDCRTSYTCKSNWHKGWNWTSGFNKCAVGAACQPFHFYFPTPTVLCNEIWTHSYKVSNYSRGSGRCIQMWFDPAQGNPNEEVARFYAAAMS
# [8] = biological target: T5, recombinant biotinylated monomeric Fc fusion of human Folate Receptor 3 (hu FolR3 ECD-AcTev-Fcknob-Avi tag … (human, UniProt P0DOX5 223-449 = IgG part, biotin on the C-terminal Avi tag)); assay: SPR Biacore, single injection on immobilized antigen-Fc
# T5 construct: also called FolR3-Fc
# Summary of the method: (§5)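 Biacore T200 at 25 °C in HBS-EP (HEPES pH 7.4). Biotinylated FolR-Fc fusions captured on SA chip at about 300-400 RU. IgGs injected once at 500 nM for 60 s to assess cross-reactivity and specificity.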
# [9] = biological target: T6, recombinant biotinylated monomeric Fc fusion of human Folate Receptor 2 (hu FolR2 ECD-AcTev-Fcknob-Avi tag … (human, UniProt P0DOX5 223-449 = IgG part, biotin on the C-terminal Avi tag)); assay: as above
# T6 construct: also called FolR2-Fc
# Summary of the method: as §5
binder,measurement,setting,value
B1,Kd,[1],5.74 nM
same,koff,[1],0.0151 s⁻¹
same,kon,[1],2.62e+06 M⁻¹ s⁻¹
same,Kd,[2],5.31 nM
same,koff,[2],0.016 s⁻¹
same,kon,[2],3.02e+06 M⁻¹ s⁻¹
same,Kd,[3],1.63 nM
same,koff,[3],0.000603 s⁻¹
same,kon,[3],370000 M⁻¹ s⁻¹
same,Kd,[4],6 nM
same,koff,[4],0.013 s⁻¹
same,kon,[4],2.07e+06 M⁻¹ s⁻¹
same,Kd,[5],6 nM
same,koff,[5],0.0175 s⁻¹
same,kon,[5],2.78e+06 M⁻¹ s⁻¹
same,Kd,[6],2 nM
same,koff,[6],0.000823 s⁻¹
same,kon,[6],428000 M⁻¹ s⁻¹
same,binding result,[7],binds
same,binding result,[8],no binding (tested: 500 nM)
same,binding result,[9],no binding (tested: 500 nM)

# From patent US20220220224A1 (Hoffmann-La Roche, published 2022)
